Experiment [1] addresses T1, Fusion protein of LAG-3 extracellular region and mIgG2a Fc (human).
T1 construct: Limits of the signal peptide are marked only by lost underlining; also called LAG-3-mFc; LAG-3-mFc fusion protein
T1 chain: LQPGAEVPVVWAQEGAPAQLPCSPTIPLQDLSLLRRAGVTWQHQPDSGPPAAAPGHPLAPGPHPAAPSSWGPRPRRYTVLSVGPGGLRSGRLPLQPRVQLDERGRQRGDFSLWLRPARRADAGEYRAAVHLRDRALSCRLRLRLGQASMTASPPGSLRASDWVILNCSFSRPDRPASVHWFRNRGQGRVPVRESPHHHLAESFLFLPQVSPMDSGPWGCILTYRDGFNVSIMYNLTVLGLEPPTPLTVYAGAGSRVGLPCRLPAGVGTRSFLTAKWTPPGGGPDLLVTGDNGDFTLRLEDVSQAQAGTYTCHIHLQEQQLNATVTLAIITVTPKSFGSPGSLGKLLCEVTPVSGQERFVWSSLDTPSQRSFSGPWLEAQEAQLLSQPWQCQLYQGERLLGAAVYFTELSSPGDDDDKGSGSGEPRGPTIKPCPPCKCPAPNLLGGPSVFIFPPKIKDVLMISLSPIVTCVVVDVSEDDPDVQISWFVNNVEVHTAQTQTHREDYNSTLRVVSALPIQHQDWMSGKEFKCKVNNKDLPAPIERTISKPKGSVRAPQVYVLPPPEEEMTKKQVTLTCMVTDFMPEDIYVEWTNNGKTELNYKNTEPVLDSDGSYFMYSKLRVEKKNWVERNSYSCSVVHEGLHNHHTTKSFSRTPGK
The experiment in a line: ELISA, LAG-3-mFc captured by anti-mouse Fc on plate (which fusion: inferred). From the text: The binding ability of anti-LAG-3 antibody to human LAG-3 protein was detected by ELISA assay. LAG-3 fusion protein with Fc or mFc tag was immobilized into 96-well microtiter plate by binding to anti-Fc or anti-mFc antibody coated on the microtiter plate, the strength of the signal after the addition of the antibody was used to determine the binding activity of the antibody to LAG-3, the specific experimental method is as follows.
The goat anti-human Fc antibody (Jackson Immuno Research, Cat No. 109-005-008) or goat anti-mouse Fc antibody (Sigma, Cat No. M3534-1ML) was diluted to a concentration of 2 μg/ml with PBS buffer at pH 7.4 (Sigma, Cat No. P4417-100TAB), and added to a 96-well plate at a volume of 50 μl/well and then, the plate was incubated in the incubator at 37° C. for 2 hours. After discarding the liquid, the plates were blocked with 200 μl/well of blocking solution containing 5% skim milk (Bright Dairy, skim milk powder) in PBS, and incubated in the incubator at 37° C. for 2.5 hours or overnight at 4° C. (16-18 hours). After blocking, the blocking solution was discarded and the plate was washed 5 times with PBST buffer (PH7.4 PBS containing 0.05% tween-20). LAG-3-Fc fusion protein (SEQ ID NO:3, produced in-house) or LAG-3-mFc fusion protein (SEQ ID NO: 4, produced in-house) was diluted with sample diluent (PH7.4 PBS containing 1% BSA) to 1 μg/ml and was added to each well, 50 μl/well. Then the plate was incubated in the incubator at 37° C. for 1 h or overnight at 4° C. After incubation, the reaction solution in the plate was discarded, and the plate was washed with PBST for 6 times, and then was added with 50 μl/well of various concentrations of antibodies to be tested (hybridoma purified antibody or humanized antibody) which have been diluted with sample diluent, and the plate was incubated at 37° C. for 1 h. The plates was washed 5 times with PBST after incubation, and was added with 100 μl/well of goat anti-mouse (Jackson Immuno Research, Cat No. 115-035-003) or goat anti-human secondary antibody (Jackson Immuno Research, Cat No. 109-035-003) labeled with HRP, diluted in sample diluent, and the plate was incubated at 37° C. for 1 h.

Experiment [2] deals with T2, Fusion protein of LAG-3 extracellular region and hIgG1 Fc (human).
T2 construct: Limits of the signal peptide are marked only by lost underlining; also called LAG-3-Fc; LAG-3-Fc fusion protein
Description: competition: biotin-LAG-3-Fc binding to fixed Daudi cells, antibody titrated. The method, then:
Daudi cells (human leukemia cells, purchased from the cell bank in Chinese Academy of Sciences) were seeded in 96-well plate with a density of 3×10⁵/well. After centrifugation at 1000 rpm, the supernatant was discarded and then the plate was fixed with 4% PFA for 30 min at room temperature. The plate was washed 4 times with PBS after discarding the fixed solution, and the plate was blocked with 200 μl/well of blocking solution containing 5% skim milk (Bright Dairy, skim milk powder) diluted in PBS, and incubated at 37° C. for 2.5 hours. After blocking, the blocking solution was discarded and the plate was washed 5 times with PBST buffer (pH7.4 PBS containing 0.05% tween-20), added with 50 μl/well mixture of biotin-labeled (Biotin labeling kit, Dojindo Chemical, Cat No. LK03) LAG-3-Fc fusion protein (produced in-house, SEQ ID NO: 3) and gradient concentrations of the antibody to be tested, wherein the biotin-labeled LAG-3-Fc fusion protein has been diluted with sample diluent (PH7.4 PBS containing 1% BSA) at a final concentration of 0.4 μg/ml, and pre-mixed for an hour, then the plate was incubated at 37° C. for 1 h. The reaction solution was discarded and the plate was washed 5 times with PBST after incubation, 50 μl/well of HRP-labeled Streptavidin (Sigma, Cat No. 52438) diluted with sample diluent was added, and the plate was incubated at 37° C. for 1 h. After washing the plate 5 times with PBST, 50 μl/well of TMB chromogenic substrate (KPL, Cat No. 52-00-03) was added to each well, and incubated at room temperature for 5-15 min, the reaction was stopped by the addition of 50 μl 1M H₂SO₄ to each well. The OD value at a wavelength of 450 nm was read on NOVOStar microplate reader, and then the activity of the LAG-3 antibody in blocking the binding of the antigen to Daudi cells was calculated.

In general, EC50 refers to the midpoint of the concentration-response curve. A lower EC50 goes with an effect from little substance. Usually IC50 stands for the point on the concentration scale where inhibition reaches its midpoint. High values mean lower potency, low ones higher potency.

B1: Hu229-008 (antibody, human IgG4 S228P, kappa, V domains shown)
VH: QVQLVQSGSELKKPGASVKVSCKASGYTFTTSGMSWVRQAPGQGLKWMGWINTYSGVPTYADDFKGRFVFSLDTSVSTAYLQISSLKAEDTAVYYCARDNYDARDVYYYAMDYWGQGTTVTVSS
VL: DIQMTQSPSSLSASVGDRVTITCRASENIYSNLAWYQQKPGKAPKLLIYAATNLADGVPSRFSGSGSGTDFTLTISSLQPEDFATYYCQHFWITPWTFGGGTKVEIKR
notes: Humanized mAb229
With B1, in experiment [1], the midpoint of the response, the EC50, lay at 506 pM.

B2: Hu229-012 (antibody, human IgG4 S228P, kappa, V domains shown)
VH: QVQLVQSGSELKKPGASVKVSCKASGYTFTTSGMSWVKQAPGQGLKWMGWINTYSGVPTYADDFKGRFVFSLDTSVSTAYLQISSLKAEDTATYYCARDNYDARDVYYYAMDYWGQGTTVTVSS
VL: DIQMTQSPSSLSASVGDRVTITCRASENIYSNLAWYQQKPGKAPKLLIYAATNLADGVPSRFSGSGSGTDFTLTISSLQPEDFATYYCQHFWITPWTFGGGTKVEIKR
notes: Humanized mAb229
Turning to B2, the EC50 in experiment [1] came to 268 pM.

B3: Hu303-011 (antibody, human IgG4 S228P, kappa, V domains shown)
VH: QVQLVQSGAEVKKPGASVKVSCKASGYTFTDYYMNWVRQAPGQRLEWMGVINPYNGDTAYNQKFKGRVTITVDKSASTAYMELSSLRSEDTAVYYCTRDDGYYDYYFDVWGQGTTVTVSS
VL: DIQMTQSPSSLSASVGDRVTITCRASQDIGSRLNWYQQKPGKAPKRLIYATSTLDSGVPKRFSGSRSGTDFTLTISSLQPEDFATYYCLQLASSPPTFGGGTKVEIKR
notes: Humanized mAb303
In experiment [1], B3 gave a concentration giving a half-maximal response (EC50) of 314 pM. In experiment [2], this molecule yielded an IC50 of 728 pM.

B4: Hu303-020 (antibody, human IgG4 S228P, kappa, V domains shown)
VH: QVQLVQSGAEVKKPGASVKVSCKASGYTLTDYYMNWVRQAPGQRLEWIGVINPYNGDTAYNQKFKGRATLTVDKSASTAYMELSSLRSEDTAVYYCTRDDGYYDYYFDVWGQGTTVTVSS
VL: DIQMTQSPSSLSASVGDRVTITCRASQDIGSRLNWYQQKPGKAPKRLIYATSTLDSGVPSRFSGSRSGTDFTLTISSLQPEDFATYYCLQLASSPPTFGGGTKVEIKR
notes: Humanized mAb303
B4 displayed a concentration for a half-maximal effect (EC50) in experiment [1] of 140 pM. This molecule also gave an IC50 in experiment [2] of 345 pM.

B5: Hu303-019 (antibody, human IgG4 S228P, kappa, V domains shown)
VH: QVQLVQSGAEVKKPGASVKVSCKASGYTLTDYYMNWVRQAPGQRLEWIGVINPYNGDTAYNQKFKGRATLTVDKSASTAYMELSSLRSEDTAVYYCTRDDGYYDYYFDVWGQGTTVTVSS
VL: DIQMTQSPSSLSASVGDRVTITCRASQDIGSRLNWYQQKPGKAPKLLIYATSTLDSGVPSRFSGSGSGTDFTLTISSLQPEDFATYYCLQLASSPPTFGGGTKVEIKR
notes: Humanized mAb303
In turn, B5 gave an EC50 in experiment [1] of 277 pM. In experiment [2], this molecule yielded an IC50 of 471 pM.

B6: Hu303-015 (antibody, human IgG4 S228P, kappa, V domains shown)
VH: QVQLVQSGAEVKKPGASVKVSCKASGYTLTDYYMNWVRQAPGQRLEWMGVINPYNGDTAYNQKFKGRVTITVDKSASTAYMELSSLRSEDTAVYYCTRDDGYYDYYFDVWGQGTTVTVSS
VL: DIQMTQSPSSLSASVGDRVTITCRASQDIGSRLNWYQQKPGKAPKRLIYATSTLDSGVPSRFSGSRSGTDFTLTISSLQPEDFATYYCLQLASSPPTFGGGTKVEIKR
notes: Humanized mAb303
Consider B6, for which a half-maximal response in experiment [1] (EC50) required 172 pM. The IC50 in experiment [2] came to 398 pM.

B7: Hu303-013 (antibody, human IgG4 S228P, kappa, V domains shown)
VH: QVQLVQSGAEVKKPGASVKVSCKASGYTFTDYYMNWVRQAPGQRLEWMGVINPYNGDTAYNQKFKGRVTITVDKSASTAYMELSSLRSEDTAVYYCTRDDGYYDYYFDVWGQGTTVTVSS
VL: DIQMTQSPSSLSASVGDRVTLTCRASQDIGSRLNWLQQKPGGAFKRLIYATSTLDSGVPKRFSGSRSGTDFTLTISSLQPEDFADYYCLQLASSPPTFGGGTKVEIKR
notes: Humanized mAb303
Take B7: the midpoint of the response in experiment [1], the EC50, lay at 166 pM. This molecule also registered an IC50 in experiment [2] of 347 pM.

B8: Hu303-008 (antibody, human IgG4 S228P, kappa, V domains shown)
VH: QVQLVQSGAEVKKPGASVKVSCKASGYTFTDYYMNWVRQAPGQRLEWMGVINPYNGDTAYNQKFKGRVTITRDTSASTAYMELSSLRSEDTAVYYCARDDGYYDYYFDVWGQGTTVTVSS
VL: DIQMTQSPSSLSASVGDRVTLTCRASQDIGSRLNWLQQKPGGAFKRLIYATSTLDSGVPKRFSGSRSGTDFTLTISSLQPEDFADYYCLQLASSPPTFGGGTKVEIKR
notes: Humanized mAb303
In experiment [1], B8 had an EC50 of 140 pM. The molecule further yielded a half-inhibitory concentration (IC50) in experiment [2] of 346 pM.

B9: Hu303-012 (antibody, human IgG4 S228P, kappa, V domains shown)
VH: QVQLVQSGAEVKKPGASVKVSCKASGYTFTDYYMNWVRQAPGQRLEWMGVINPYNGDTAYNQKFKGRVTITVDKSASTAYMELSSLRSEDTAVYYCTRDDGYYDYYFDVWGQGTTVTVSS
VL: DIQMTQSPSSLSASVGDRVTITCRASQDIGSRLNWLQQKPGKAFKRLIYATSTLDSGVPKRFSGSRSGTDFTLTISSLQPEDFATYYCLQLASSPPTFGGGTKVEIKR
notes: Humanized mAb303
In turn, B9 had an EC50 in experiment [1] of 164 pM. For the same molecule, in experiment [2], the IC50 came to 361 pM.

B10: Hu303-017 (antibody, human IgG4 S228P, kappa, V domains shown)
VH: QVQLVQSGAEVKKPGASVKVSCKASGYTLTDYYMNWVRQAPGQRLEWMGVINPYNGDTAYNQKFKGRVTITVDKSASTAYMELSSLRSEDTAVYYCTRDDGYYDYYFDVWGQGTTVTVSS
VL: DIQMTQSPSSLSASVGDRVTITCRASQDIGSRLNWLQQKPGKAFKRLIYATSTLDSGVPKRFSGSRSGTDFTLTISSLQPEDFATYYCLQLASSPPTFGGGTKVEIKR
notes: Humanized mAb303
In experiment [1], B10 gave an EC50 of 168 pM. Moreover, the IC50 in experiment [2] came out at 398 pM.

B11: Hu303-007 (antibody, human IgG4 S228P, kappa, V domains shown)
VH: QVQLVQSGAEVKKPGASVKVSCKASGYTFTDYYMNWVRQAPGQRLEWMGVINPYNGDTAYNQKFKGRVTITRDTSASTAYMELSSLRSEDTAVYYCARDDGYYDYYFDVWGQGTTVTVSS
VL: DIQMTQSPSSLSASVGDRVTITCRASQDIGSRLNWLQQKPGKAFKRLIYATSTLDSGVPKRFSGSRSGTDFTLTISSLQPEDFATYYCLQLASSPPTFGGGTKVEIKR
notes: Humanized mAb303
In experiment [1], B11 had an EC50 of 135 pM. Also, the IC50 in experiment [2] is 343 pM.

B12: Hu303-018 (antibody, human IgG4 S228P, kappa, V domains shown)
VH: QVQLVQSGAEVKKPGASVKVSCKASGYTLTDYYMNWVRQAPGQRLEWMGVINPYNGDTAYNQKFKGRVTITVDKSASTAYMELSSLRSEDTAVYYCTRDDGYYDYYFDVWGQGTTVTVSS
VL: DIQMTQSPSSLSASVGDRVTLTCRASQDIGSRLNWLQQKPGGAFKRLIYATSTLDSGVPKRFSGSRSGTDFTLTISSLQPEDFADYYCLQLASSPPTFGGGTKVEIKR
notes: Humanized mAb303
The molecule B12 returned an EC50 in experiment [1] of 244 pM. For the same molecule, in experiment [2], the half-inhibitory concentration (IC50) is 608 pM.
